Reference: patent US20250296960A1, “PEPTIDE COMPOSITIONS AND METHODS OF USE THEREOF” (priority 2022, published 2025)
Read-outs that look alike come from different tables or passages of the source. Numbered stars: 1 amine (or outer) side, 2 acyl side, 3 side chain; on linkers, the order of the positions; unused ones are H or OH. Square brackets hold non-standard residues; d marks the D form. Side chains are listed from the residue outwards. Ends that are not written are not given here. C18 = C18 fatty acid (C16-C22 fatty acids conjugated via γGlu/8-amino-3,6-dioxaoctanoic acid spacers); γGlu = O=C(O)[C@H](CCC(=O)[*:2])N[*:1]; AEEA = NCCOCCOCC(=O)O; Aib = CC(C)(N)C(=O)O; MAL = maleimide

How the values were obtained:
Test in all cases: cell-based or functional assay
[1] = molecular target: T1, human glucagon receptor (GCGR), expressed on CHO-K1 cells (human, UniProt P47871 26-477)
[2] = molecular target: T2, human glucose-dependent insulinotropic polypeptide receptor (GIPR), expressed on CHO-K1 cells (human, UniProt P48546 22-466)
T2 sequence (looked up): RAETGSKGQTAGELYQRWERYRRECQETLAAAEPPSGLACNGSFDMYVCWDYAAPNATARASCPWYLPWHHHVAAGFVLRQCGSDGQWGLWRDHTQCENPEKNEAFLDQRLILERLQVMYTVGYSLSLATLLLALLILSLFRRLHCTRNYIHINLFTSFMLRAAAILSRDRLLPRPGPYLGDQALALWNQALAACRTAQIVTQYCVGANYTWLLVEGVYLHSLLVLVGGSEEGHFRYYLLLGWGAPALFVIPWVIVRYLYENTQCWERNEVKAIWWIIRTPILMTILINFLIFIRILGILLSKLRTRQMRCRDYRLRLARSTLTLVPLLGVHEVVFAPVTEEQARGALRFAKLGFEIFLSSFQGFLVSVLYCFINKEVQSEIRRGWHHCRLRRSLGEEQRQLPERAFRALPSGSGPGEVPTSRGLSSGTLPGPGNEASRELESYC

[3] = molecular target: T3, human GLP-1 receptor (GLP-1R), expressed on CHO-K1 cells (human, UniProt P43220 24-463)
[4] = molecular target: T1, human glucagon receptor (GCGR), …; remark: listed apart in the source
[5] = molecular target: T2, human glucose-dependent insulinotropic …; remark: listed apart in the source
[6] = molecular target: T3, human GLP-1 receptor (GLP-1R), …; remark: listed apart in the source
[7] = molecular target: T1, human glucagon receptor (GCGR), …; remark: listed apart in the source
[8] = molecular target: T2, human glucose-dependent insulinotropic …; remark: listed apart in the source
[9] = molecular target: T3, human GLP-1 receptor (GLP-1R), …; remark: listed apart in the source
[10] = molecular target: T1, human glucagon receptor (GCGR), …; remark: listed apart in the source
[11] = molecular target: T2, human glucose-dependent insulinotropic …; remark: listed apart in the source
[12] = molecular target: T3, human GLP-1 receptor (GLP-1R), …; remark: listed apart in the source
[13] = molecular target: T1, human glucagon receptor (GCGR), …; remark: listed apart in the source
[14] = molecular target: T2, human glucose-dependent insulinotropic …; remark: listed apart in the source
[15] = molecular target: T3, human GLP-1 receptor (GLP-1R), …; remark: listed apart in the source
[16] = molecular target: T2, human glucose-dependent insulinotropic …; remark: listed apart in the source
[17] = molecular target: T3, human GLP-1 receptor (GLP-1R), …; remark: listed apart in the source
[18] = molecular target: T1, human glucagon receptor (GCGR), …; remark: listed apart in the source
[19] = molecular target: T1, human glucagon receptor (GCGR), …; remark: listed apart in the source
[20] = molecular target: T3, human GLP-1 receptor (GLP-1R), …; remark: listed apart in the source
[21] = molecular target: T2, human glucose-dependent insulinotropic …; remark: listed apart in the source

T1 sequence (P47871 26-477): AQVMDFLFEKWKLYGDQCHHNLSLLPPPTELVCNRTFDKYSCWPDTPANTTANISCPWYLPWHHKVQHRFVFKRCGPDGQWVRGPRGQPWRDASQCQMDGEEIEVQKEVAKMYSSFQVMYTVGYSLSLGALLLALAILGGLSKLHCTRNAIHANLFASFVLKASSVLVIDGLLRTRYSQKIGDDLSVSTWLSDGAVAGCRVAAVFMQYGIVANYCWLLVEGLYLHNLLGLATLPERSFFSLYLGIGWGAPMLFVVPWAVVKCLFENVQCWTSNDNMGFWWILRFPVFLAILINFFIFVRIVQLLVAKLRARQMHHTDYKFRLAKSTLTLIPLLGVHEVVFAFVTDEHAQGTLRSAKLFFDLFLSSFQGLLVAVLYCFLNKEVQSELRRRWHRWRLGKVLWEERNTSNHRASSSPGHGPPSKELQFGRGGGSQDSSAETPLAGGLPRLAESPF

| Binder | Ratio vs. GLP-1R [1] | Ratio vs. GLP-1R [2] | Ratio vs. GLP-1R [3] | Relative % to native ligand [4] [%] | Relative % to native ligand [5] [%] | Relative % to native ligand [6] [%] | Relative % to non-lipidated peptide [7] [%] | Relative % to non-lipidated peptide [8] [%] | Relative % to non-lipidated peptide [9] [%] | Activity relative to GLP-1 (%) [10] [%] | Activity relative to GLP-1 (%) [11] [%] | Activity relative to GLP-1 (%) [12] [%] | EC50 (nM), cAMP assay [13] [nM] | EC50 (nM), cAMP assay [14] [nM] | EC50 (nM), cAMP assay [15] [nM] | Percentage change in EC50 relative to GIP at human GIPR (%) [16] [%] | Percentage change in EC50 relative to GLP-1 at human GLP-1R (%) [17] [%] | Percentage change in EC50 relative to GCG at human GCGR (%) [18] [%] | Percentage change in EC50 relative to GCG at human GCGR (%) [19] [%] | Percentage change in EC50 relative to GLP-1 at human GLP-1R (%) [20] [%] | further results |
| --- | --- | --- | --- | --- | --- | --- | --- | --- | --- | --- | --- | --- | --- | --- | --- | --- | --- | --- | --- | --- | --- |
| Y[Aib]QGTFTSDYSKYLDYMMARDFVQWLIEGGPSSGAPPPSC-NH2 (not fully specified (residue 40)) [Peptide No. 5-1A] | 13 | 1 | 100 | 24 | 1 | 187 | 0 | 11 | 159 | 13 | 1 | 100 | 0.576 | 53.9 | 0.269 | – | – | – | – | – | – |
| H[Aib]QGTFTSDHSWYLDKWTAHDFVQWLINGGPSSGAPPPSC-NH2 [Peptide No. 18 (with C-terminal cysteine)] | – | – | – | – | – | – | – | – | – | – | – | – | – | – | – | 0 | 40 | 1 | – | – | – |
| H[Aib]QGTFTSDWSKYLDQQMAQDFVDWLINGGPSSGAPPPSC([MAL-AEEA-AEEA-γGlu-C18])-NH2 [Peptide No. 12A (peptide 12, A type: lipid at Cys40)] | – | – | – | – | – | – | – | – | – | – | – | – | – | – | – | – | – | – | 15 | 296 | Percentage change in EC50 relative to GIP at human GIPR (%) [21]: 8% |
| H[Aib]QGTFTSDHSWYLDKWTAHDFVQWLINGGPSSGAPPPSC([MAL-AEEA-AEEA-γGlu-C18])-NH2 [Peptide No. 18A (peptide 18, A type: lipid at Cys40)] | – | – | – | – | – | – | – | – | – | – | – | – | – | – | – | – | – | – | 0 | 0 | Percentage change in EC50 relative to GIP at human GIPR (%) [21]: 0% |
| H[Aib]QGTFTSDYSKLLDYMMQRDFVQWLLEGGPSSGAPPPSC([MAL-AEEA-AEEA-γGlu-C18])-NH2 [Peptide No. 5-5A] | 0 | 2 | 100 | 1 | 14 | 673 | 1 | 3 | 40 | 0 | 2 | 100 | 9.43 | 5.17 | 0.0747 | – | – | – | – | – | – |
| H[Aib]QGTFTSDWSKYLDQQMAQDFVDWLINGGPSSGAPPPSC-NH2 [Peptide No. 12 (with C-terminal cysteine)] | – | – | – | – | – | – | – | – | – | – | – | – | – | – | – | 4 | 303 | 1200 | – | – | – |
| Y[Aib]QGTFTSDYSKYLDYMMQRDFVQWLIEGGPSSGAPPPSC-NH2 (not fully specified (residue 40)) [Peptide No. 5-2A] | 0 | 2 | 100 | 1 | 3 | 145 | 1 | 0.4 | 29 | 0 | 2 | 100 | 23 | 24.7 | 0.348 | – | – | – | – | – | – |
| H[Aib]QGTFTSDASKYLDRDWTGDFVQWLIDGGPSSGAPPPSC([MAL-AEEA-AEEA-γGlu-C18])-NH2 [Peptide No. 32A (peptide 32, A type: lipid at Cys40)] | – | – | – | – | – | – | – | – | – | – | – | – | – | – | – | – | – | – | 0 | 1 | Percentage change in EC50 relative to GIP at human GIPR (%) [21]: 0% |
| H[Aib]QGTFTSDHSKYLDGAWAADFVMWLLDGGPSSGAPPPSC-NH2 [Peptide No. 57 (with C-terminal cysteine)] | – | – | – | – | – | – | – | – | – | – | – | – | – | – | – | 0 | 1 | 1 | – | – | – |
